From the supplement of paper PMC12042874 come the findings set out here.

± gives the uncertainty stated by the source.

The series in a line: amyloid nucleation score (Sup35N fusion, yeast selection) (log enrichment); library NNK2; higher = more nucleation; inactive = no reads after selection. The method, boiled down: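 Three technical output replicates were used for random libraries. Psi-negative yeast expressing peptides of 20 random codons fused to Sup35N were induced with 100 μM copper sulfate for 24 hours and grown 7 days at 30°C on medium lacking adenine and uracil, and input and output plasmid inserts were Illumina-sequenced, excluding sequences with under 100 input reads. The nucleation score is the DiMSum log enrichment of output over input reads, centred on the mode score of non-aggregating sequences.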
The substance WHENMSGTPKLASTNNGSKR gave an amyloid nucleation score of 2.61 ± 0.18.

Turning to SFYIRGYISFLGHRTW, the amyloid nucleation score is 2.57 ± 0.17.

LRGHRPFLVY came in with an amyloid nucleation score of -0.02 ± 1.1.

WQCKLPSNYGFGTK came in with an amyloid nucleation score of 0.11 ± 0.77.

On to FQCLVFLLIGRFGVRHWT, for which the amyloid nucleation score was -0.675 ± 1.1.

In the case of RKVLLVNVLGSDEDTHLTRV, the amyloid nucleation score is -0.973 ± 0.76.

For the substance CFTKDMLSDNCVSV, the amyloid nucleation score is -0.845 ± 1.

As to HHIRSFVETGGDTWWGRCSR, the amyloid nucleation score was determined as 1.05 ± 0.21.

With VVRHLWMTKYCRFMFISTVY, the amyloid nucleation score is -0.898 ± 0.34.

Turning to HNLLSRSAQPRGPLRPVRRH, the amyloid nucleation score was 2.35 ± 0.16.

For RMMVGALAGFMV, the amyloid nucleation score was 0.578 ± 0.35.

GFQWLDAYLLGSFWMRMSTC registered an amyloid nucleation score of 0.516 ± 0.81.

The substance VDHLFIRIHSVMIPAL registered an amyloid nucleation score of -0.447 ± 1.1.

For the substance RVYDGAVVR, the amyloid nucleation score worked out at 0.547 ± 0.34.

NVPKSSINEWSLPDLLVLNV yielded an amyloid nucleation score of 0.923 ± 0.81.

In the case of YEIRWFRGLIK, the amyloid nucleation score was determined as 0.495 ± 0.43.

Consider SSYRSEGSAYGMPYYPVSAS, for which the amyloid nucleation score amounted to 1.06 ± 0.38.

Consider LQVAARHHL, for which the amyloid nucleation score result is “inactive”.

In the case of SSLFMTIWDSFSPI, the amyloid nucleation score is -0.186 ± 0.45.

As for KCMRFIL, the amyloid nucleation score was -0.087 ± 1.

LPTFSPQ displayed an amyloid nucleation score of 3.77 ± 0.13.

Turning to EYVRFYLMGISWEAEKSHAL, the amyloid nucleation score was 4.23 ± 0.11.

In turn, TGLKIG gave an amyloid nucleation score of 0.038 ± 0.29.

For the substance TGRISVSG, the amyloid nucleation score was found to be 0.14 ± 1.

FSMRCYRVVLKYVSTGW: the amyloid nucleation score is 0.905 ± 0.35.

Regarding LTILFH, the amyloid nucleation score is 4.84 ± 0.078.

Consider VKWTVNEVYGCYYCTGSVYA, for which the amyloid nucleation score worked out at 6.154 ± 0.042.

Substance RSHAT gave an amyloid nucleation score of 0.579 ± 0.33.

With VSGLPN, the amyloid nucleation score result is “inactive”.

The substance LVVSI had an amyloid nucleation score of -0.876 ± 0.78.

NKEECL had an amyloid nucleation score of 0.021 ± 0.35.

Take CTSVKQNDLKGSLIN: the amyloid nucleation score entry was “inactive”.

For MMFILLYKTFCAGEWAGGMY, the amyloid nucleation score was 6.053 ± 0.04.

In turn, FIDVHMEYRDKTRCWLVLVL gave an amyloid nucleation score of -0.891 ± 0.78.

LSYRVRCIRMNMLSSALGTM: the amyloid nucleation score entry was “inactive”.

Take YHIWRYHATSSHTFARFSSV: the amyloid nucleation score is 1.62 ± 0.51.

SSFHWPIKSRDAGVAWSRGG showed an amyloid nucleation score of 2.07 ± 0.18.

CCCASR: the amyloid nucleation score entry is “inactive”.

Take TVNFYKRWSDCQLMSFIVRV: the amyloid nucleation score entry is “inactive”.

The substance IWHSVWYP came in with an amyloid nucleation score of -0.318 ± 0.76.

GWASHGDNDSAMTGGSVWPG: the amyloid nucleation score is 0.587 ± 0.62.

Regarding AILKWSLICMMGRDWYSQWF, the amyloid nucleation score was 6.317 ± 0.037.

Regarding SSFRSLRSRHPPGTLPPDTP, the amyloid nucleation score was found to be 0.919 ± 0.3.

With SYSLIVE, the amyloid nucleation score amounted to 0.919 ± 0.48.

LLFPM yielded an amyloid nucleation score of 0.647 ± 0.8.

Substance GNVWILIYNV had an amyloid nucleation score of 6.164 ± 0.057.

LLMSCPLSLCSEGVTSLVEG displayed an amyloid nucleation score of 1.29 ± 0.3.

Regarding RNSSVGT, the amyloid nucleation score result is “inactive”.

In the case of YMLWGWFFLNGFYTVIGIVP, the amyloid nucleation score entry was “inactive”.

In the case of VYLGIFRL, the amyloid nucleation score amounted to 2.76 ± 0.13.

Consider TGVFHSVCNIWCFHSKDPSN, for which the amyloid nucleation score was 7.54 ± 0.076.

As for GSLKCDAHLG, the amyloid nucleation score is 0.339 ± 0.18.

Turning to WVGLHVR, the amyloid nucleation score turned out to be 0.525 ± 0.36.

Regarding SLVLVDFAYSWMSGSAFWFF, the amyloid nucleation score is -1.09 ± 1.1.

AFATRCCSTLIDPSFVIGTG returned an amyloid nucleation score of 0.692 ± 0.41.

DGLFGVTTWNSLFLWILKR had an amyloid nucleation score of -1.1 ± 0.62.

As for LIPLIVLGGTDSFKELYGYE, the amyloid nucleation score is -0.624 ± 0.61.

Take RLMHGRIRPLNSKWLTGLG: the amyloid nucleation score turned out to be 1.11 ± 0.34.

As for NIPAYTSMTFVLWTIL, the amyloid nucleation score was -0.153 ± 0.37.

In the case of MTCSTWMQLVRYTSVICILT, the amyloid nucleation score entry is “inactive”.

As for IYFKIIQDKFQTRMCSNKSW, the amyloid nucleation score entry is “inactive”.

The substance TNFYWY gave an amyloid nucleation score of 3.23 ± 0.065.

As to LFDVADIDA, the amyloid nucleation score is 0.736 ± 0.74.

Consider RTSHSLRWMVRPYRRADPMR, for which the amyloid nucleation score came out at 0.691 ± 0.54.

With RYSNKSDDYRGTSYLMYHVM, the amyloid nucleation score came to 0.232 ± 0.45.

On to AALFDLRWTHHKYFPNVKSG, for which the amyloid nucleation score stood at 0.057 ± 1.1.

Substance VDLGMPSLWRSDGASPGGFF displayed an amyloid nucleation score of 0.277 ± 0.49.

Turning to IDFSRQTYLNCKKSRSSLLS, the amyloid nucleation score is -0.437 ± 0.61.

Substance NPLAIVAS gave an amyloid nucleation score of -1.77 ± 0.78.

Regarding SNYHSGRVKGGDVGVYIS, the amyloid nucleation score was found to be 3.57 ± 0.051.

QNMNLVHEIGMNRSLVFTFW returned an amyloid nucleation score of -0.167 ± 0.29.

YYYIRCTAVK returned an amyloid nucleation score of -0.495 ± 0.65.

IIGAWKM: the amyloid nucleation score was 0.992 ± 0.33.

In the case of YYVVLGSSM, the amyloid nucleation score was -0.018 ± 0.42.

Take LYFLV: the amyloid nucleation score was 6.55 ± 0.085.

IDDARRYCRQNRFTVSMGNC displayed an amyloid nucleation score of -0.112 ± 0.54.

In turn, GRWVNCKTVVLFSSDRRQAR gave an amyloid nucleation score of 3.36 ± 0.14.

Turning to YMFDFYFVLYESKYAWINPK, the amyloid nucleation score result was “inactive”.

TMSPCINASIFWDYA returned an amyloid nucleation score of 3.08 ± 0.05.

Take PFHPICVYKRPFLCPE: the amyloid nucleation score result is “inactive”.

On to WQRLKLSEKLVGSAVPLKAG, for which the amyloid nucleation score was determined as 4.44 ± 0.11.

Turning to LYSDMRASDRYWTLSFDCKI, the amyloid nucleation score is 1.88 ± 0.48.

Consider GRDNYSWCSRVEPCKRNGAL, for which the amyloid nucleation score worked out at 0.103 ± 0.43.

QYDIVPNVSGNYPNGIFKDR: the amyloid nucleation score result is “inactive”.

As to YLWDTIYIDLSVLLVLATSW, the amyloid nucleation score is 0.21 ± 0.54.

For the substance LMDRLFMKCDGLAG, the amyloid nucleation score amounted to 0.216 ± 0.53.

In the case of HLLRKDVPQAWT, the amyloid nucleation score turned out to be 3.29 ± 0.11.

For IGLANSSVCFSAFVTWYSLH, the amyloid nucleation score entry is “inactive”.

GHYKISKAFTVTST: the amyloid nucleation score was determined as 2.58 ± 0.095.

Turning to DEECTEPTWIGDEFDPLDIE, the amyloid nucleation score entry is “inactive”.

Turning to WYKRVVFPMP, the amyloid nucleation score was -0.442 ± 1.

With ALCIAGTLLYMANLISTLHG, the amyloid nucleation score was determined as 0.439 ± 0.36.

ARRVQRKSIPTFVSSAMMSD had an amyloid nucleation score of -0.25 ± 0.36.

As for KITRWLCYIFTTLL, the amyloid nucleation score is -1.7 ± 1.1.

Consider FSMYSSSVWLDW, for which the amyloid nucleation score entry is “inactive”.

As for EVADSRKVSSATWSISSNQR, the amyloid nucleation score amounted to 1.41 ± 0.4.

As for LLCFHTHLRKAMGVTINSIS, the amyloid nucleation score is -1.19 ± 0.49.

On to RSLGTRAFAVRFRTSCWINV, for which the amyloid nucleation score is -0.317 ± 0.46.

As to SIYFKVIATTSVYRLMPTVW, the amyloid nucleation score is -0.291 ± 0.74.

Consider IAIFWSYWGDVIVYSGMVLE, for which the amyloid nucleation score is -0.187 ± 0.55.

Substance ATYAGMFMEEMPEHYFVWGT displayed an amyloid nucleation score of 0.356 ± 0.74.

VRNFYLYVMWPWVQEFY: the amyloid nucleation score was 7.457 ± 0.061.

YLSRWYLKILQVSWRSVHSS showed an amyloid nucleation score of -0.712 ± 0.36.

Regarding VPEFCVSSCNSVNLRASE, the amyloid nucleation score was found to be 1.78 ± 0.14.

The substance FDWNVDDYTFIYDN yielded an amyloid nucleation score of -2.38 ± 0.75.

SLPIVEDITGYPLRSHWG displayed an amyloid nucleation score of 0.172 ± 0.27.

CNMFCFDCCLWFGGMRISST yielded an amyloid nucleation score of 8.315 ± 0.042.

On to ITADNVKSNHKAVVMNDIHG, for which the amyloid nucleation score was -0.133 ± 0.49.

Substance HYSFYLVDYSFNISVGYFCT registered an amyloid nucleation score of 0.571 ± 0.39.

In the case of VWQQS, the amyloid nucleation score amounted to 0.668 ± 0.49.

As to FQPFVDLLDVVHRELGSLTR, the amyloid nucleation score turned out to be 4.76 ± 0.067.

FVSRSLNSQGQWFRSMTECR came in with an amyloid nucleation score of -0.517 ± 0.36.

For the substance YYSPYN, the amyloid nucleation score result was “inactive”.

The substance VFDVISI returned an amyloid nucleation score of -0.064 ± 0.76.

Turning to CLNRNGKEVTWVGLIC, the amyloid nucleation score worked out at 2.46 ± 0.069.

Consider WRASK, for which the amyloid nucleation score worked out at 3.23 ± 0.057.

KYVIR returned an amyloid nucleation score of -0.606 ± 1.1.

In the case of FREVSSLRCIIFLHITCRNS, the amyloid nucleation score is 0.647 ± 0.57.

LKDVGPYQRVRRGTVRYA registered an amyloid nucleation score of 0.756 ± 0.4.

Turning to RNIQYVAMEVCDFKFPVDGV, the amyloid nucleation score came to 0.223 ± 0.26.

The substance YILSWARFIEYDYLTPRVYS gave an amyloid nucleation score of 0.356 ± 0.57.

Turning to RGINKTDIFVFELCVHDVCL, the amyloid nucleation score worked out at 2.58 ± 0.16.

MIWLHIILMLMLVCRVLSE showed an amyloid nucleation score of 0.914 ± 0.46.

With CLAVSSDVDSQGKGIRIYIL, the amyloid nucleation score is -1.24 ± 1.1.

In turn, QRCWRSGTFSGM gave an amyloid nucleation score of -0.107 ± 1.

The substance NHGWLYGWVVVNYTFTTGVM yielded an amyloid nucleation score of -1.63 ± 0.39.

Turning to LAFDK, the amyloid nucleation score entry is “inactive”.

Consider RRLLGRLFLGTTSKLYVGDL, for which the amyloid nucleation score was -0.147 ± 0.26.

TYMSYFSSTWKILVGAHWRR yielded an amyloid nucleation score of 1.85 ± 0.18.

In the case of WLMTYFNISSGFKSVTWVES, the amyloid nucleation score was found to be 3.69 ± 0.11.

For YIYYNYKGLSVVFLSNSNMW, the amyloid nucleation score came to 2.88 ± 0.12.

For the substance VITSYVRRQCVKFCCGARCR, the amyloid nucleation score was found to be 8.347 ± 0.054.

As to ESYKCVFRLIDWNIDYILTV, the amyloid nucleation score is 0.855 ± 0.57.

VLAHNSGWNGTKETYCMSNG showed an amyloid nucleation score of -0.436 ± 0.54.

The substance SELRKVRCNG showed an amyloid nucleation score of 0.813 ± 0.46.

As to SNCRQSPYNNQVI, the amyloid nucleation score was determined as 0.155 ± 1.1.

Regarding MNMFMCFNGHNKRIVVKSKL, the amyloid nucleation score came out at 0.446 ± 0.42.

In turn, CNWGRTFCRRVSVPVRRSDL gave an amyloid nucleation score of -0.074 ± 1.1.

Take NYSNFTIKYLNLKRTLLDL: the amyloid nucleation score was -1.74 ± 0.64.

VAEVKRLHIYWRAPSFRSAN came in with an amyloid nucleation score of -0.596 ± 0.79.

Regarding SDCVTFATCWM, the amyloid nucleation score was found to be 0.096 ± 0.49.

Regarding SWVSFDKSLHMGVVYDRLRR, the amyloid nucleation score result was “inactive”.
